In PMC3784150, “Characterization of C-S Lyase from C. diphtheriae: A Possible Target for New Antimicrobial Drugs” (BioMed Research International, 2013):

How the values were obtained:
[1] = tested on: N[C@@H](CCSC[C@H](N)C(=O)O)C(=O)O; test: purified protein; conditions: PLP; pH 9.0; 30.0 °C
N[C@@H](CS)C(=O)O = test: purified protein; conditions: PLP
C-S lyase = biological target: T1, C-S lyase (Corynebacterium diphtheriae, UniProt Q6NFZ9); test: fluorescence titration of apoenzyme (emission at […] nm); assay type: binding
T1 construct: gene aecD; recombinant His-tagged apoenzyme

[2] = tested on: N[C@@H](CCSC[C@H](N)C(=O)O)C(=O)O; test: steady-state kinetics, Km; assay type: biochemical, Corynebacterium diphtheriae; conditions: PLP; pH 9.0; 30.0 °C
[3] = biological target: pyridoxal-5′-phosphate (PLP-) dependent C-S lyase from Corynebacterium diphtheriae (Corynebacterium diphtheriae); test: SEC; analytical Superdex 200 HR 10/30, 20 mM sodium phosphate pH 7.2, 150 mM NaCl, 0.1 mL/min; calibrated with mass standards 12.4-669 kDa; apparent mass 85 kDa against about 44 kDa for the subunit

“C-S lyase (Corynebacterium diphtheriae NCTC 13129)” showed a Km [1] of 1.07 ± 0.22 mM, a kcat [1] of 92.7 ± 4.44 s⁻¹ and a Km (N[C@@H](CS)C(=O)O) of 0.95 ± 0.18 mM.

Work on `Cc1ncc(COP(=O)(O)O)c(C=O)c1O` [PLP, pyridoxal-5′-phosphate] yielded a Kd (C-S lyase) of 90 ± 30 nM.

“C-S lyase (Corynebacterium diphtheriae NCTC 13129; Y114F)” gave a Km [2] of 0.20 ± 0.01 mM and a kcat [2] of 1.2 ± 0.02 s⁻¹.

Work on “pyridoxal-5′-phosphate (PLP-) dependent C-S lyase from Corynebacterium diphtheriae (enzyme)” yielded a stoichiometry N [3] of 2.
